The results in this text go back to US20260028403A1 (Zymeworks, published 2026).

In assay [1] the target is T1, CD28 on primary human T cells (human, UniProt P10747 19-220). Nature of the assay: cell-based or functional assay.
The target in assay [2] is T1, CD28 on primary human T cells. Nature of the assay: cell-based or functional assay. The source holds these as a separate data set.
A further assay addresses T2, Human CLDN18.2 (human).
T2 construct: on transfected HEK293-6E cells or native on SNU 601 cells
Nature of the assay: flow cytometry, SNU 601 cells.

Assay [3] concerns the target T3, Recombinant human/cynomolgus/rhesus macaque CD28 mouse IgG2a Fc fusion protein (Acro Biosystems) (human/cynomolgus/rhesus macaque, UniProt P10747 19-152).
T3 construct: bought; also called huCD28
Nature of the assay: SPR, in-format anti-CD28 variants, huCD28.

Assay [4] has as its target T4, Recombinant human CD3 epsilon/delta heterodimer, his tag protein (Acro Biosystems) (human, UniProt P07766 23-126; P04234 22-105).
T4 construct: bought
Nature of the assay: SPR Biacore T200, CD3 e/d-his on CM5, construct injected, 1:1 model.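 Note: measured at 25 °C in HEPES-buffered saline with EDTA and Tween 20 at pH 7.4, values are means of three independent runs.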

In assay [5] the target is T3, Recombinant human/cynomolgus/rhesus …. Nature of the assay: SPR Biacore T200, CD28-mIgG2a Fc on CM5, construct injected, 1:1 model.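 Note: fc fusion captured by amine coupling, run at 25 °C in HEPES buffer pH 7.4, association 140-500 s then dissociation 600-1200 s, values averaged over three independent runs.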
Procedure: All SPR binding experiments were carried out using a BiacoreT200 instrument at 25° C. with 10 mM HEPES, 150 mM NaCl, 3 mM EDTA, and 0.05% Tween 20 at pH 7.4. Recombinant human/cynomolgus/rhesus macaque CD28 mouse IgG2a Fc fusion protein (Acro Biosystems) was covalently immobilized on CM5 sensor chips by amine coupling. Purified antibody constructs to be tested were injected on the sensor chip at 30 μL/min for 140-500 s following a dissociation for 600-1200 s. Resultant kₒₙ, koff and KD values were determined from fitting the sensorgrams using the 1:1 binding model with reported values as the mean of three independent runs.

Procedure for Human CLDN18.2: To determine the impact of the trispecific construct format on the construct's ability to binding CLDN18.2, the binding affinity to CLDN18.2 was measured for certain constructs using flow cytometry as described below.
To that end, cells (>80% viability) were resuspended to 1×10⁶ cells/mL in FACS buffer (PBS+2% FBS; Gibco) and seeded in a 96 well v-bottom plate (Sarstedt). Cells were mixed with antibody dilutions and incubated at 4° C. for one hour. Following incubation, cells were washed twice by adding 150 mL FACS buffer and centrifuging for 400×g for 3 minutes. […] Cells were washed twice by adding 150 mL FACS buffer and centrifuging for 400×g for 3 minutes. Cells were resuspended in FACS buffer and acquired on the BD LSRFortessa Cell Analyzer.

B1: v37638 (trispecific antibody, human IgG1, kappa, L234A L235A)
heavy 1: not shown
heavy 2: QVQLVESGGGLVQPGGSLRLSCSVSGIDLSSNPMIWVRQAPGKGLQYIGIIDTDGSTYYADWAKGRFTISKDSTTVYLQINSPRAEDTAVYYCARRLHGSSNGYYDDLWGQGTLVTVSSGGGGSGGGGSGGGGSGGGGSDGQMTQSPSSVSASVGDRVTITCQASQSIYSYLSWYQQKPGQRPKLLIYKASTLASGVPSRFSGSGSGTDFTLTISSVQPEDFATYYCQQGYTVTNVDKNTFGGGTKVEIKAAEPKSSDKTHTCPPCPAPEAAGGPSVFLFPPKPKDTLMISRTPEVTCVVVSVSHEDPEVKFNWYVDGVEVHNAKTKPREEQYNSTYRVVSVLTVLHQDWLNGKEYKCKVSNKALPAPIEKTISKAKGQPREPQVYVLPPSRDELTKNQVSLLCLVKGFYPSDIAVEWESNGQPENNYLTWPPVLDSDGSFFLYSKLTVDKSRWQQGNVFSCSVMHEALHNHYTQKSLSLSPG
light: DIQMTQSPSSLSASVGDRVTITCRASESVEYYVTSLMQWYQQKPGKAPKLLIYAASNVDSGVPSRFSGSGSGTDFTLTISSLQPEDIATYYCQQSRKVPFTFGGGTKVEIKRTVAAPSVFIFPPSDEQLKSGTASVVCLLNNFYPREAKVQWKVDNALQSGNSQESVTEQDSKDSTYSLSSTLTLSKADYEKHKVYACEVTHQGLSSPVTKSFNRGEC
notes: wild type huTN228 Fab; Het Fc, FcKO; also called Cldn18.2xCD3xCD28 trispecific
Regarding B1, in assay [1], the “IC50, T cell-dependent cytotoxicity on SNU 601” value stood at 0.17 pM and the “Maximum Killing (%), SNU 601” value stood at 88.2%. Also, in assay [2], the “IL-2 maximum cytokine, T cells alone” value is 1750 pg/mL; the “IL-2 maximum cytokine, T cells with SNU 601 cells” value was 3710 pg/mL; the “TNFa maximum cytokine, T cells alone” value turned out to be 115 pg/mL; the “TNFa maximum cytokine, T cells with SNU 601 cells” value was found to be 670 pg/mL. Further, in the assay with Human CLDN18.2, the Bmax was determined as 9140 MFI and the EC50 amounted to 47.5 nM. In assay [3], the “Fold-change from WT” value was determined as 1 fold, the Kd is 22.2 nM, the koff came to 0.0021 s⁻¹ and the kon is 95500 M⁻¹ s⁻¹. Besides, in assay [4], the Kd was 74.6 nM, the koff was determined as 0.0123 s⁻¹ and the kon was 164000 M⁻¹ s⁻¹. Besides, in assay [5], the Kd is 22.2 nM, the koff turned out to be 0.0021 s⁻¹ and the kon worked out at 95500 M⁻¹ s⁻¹.

B2: v37635 (trispecific antibody, human IgG1, lambda, L234A L235A)
heavy 1: EVQLVESGGGLVQPGGSLRLSCAASGVTFNYYGMSWIRQAPGKGLEWVASITSSGGRIYYPDSVKGRFTISRENTQKTLYLQMNSLRAEDTAVYYCTLDGRDGWVAYWGQGTLVTVSSASTKGPSVFPLAPSSKSTSGGTAALGCLVKDYFPEPVTVSWNSGALTSGVHTFPAVLQSSGLYSLSSVVTVPSSSLGTQTYICNVNHKPSNTKVDKKVEPKSCDKTHTCPPCPAPEAAGGPSVFLFPPKPKDTLMISRTPEVTCVVVSVSHEDPEVKFNWYVDGVEVHNAKTKPREEQYNSTYRVVSVLTVLHQDWLNGKEYKCKVSNKALPAPIEKTISKAKGQPREPQVYVYPPSRDELTKNQVSLTCLVKGFYPSDIAVEWESNGQPENNYKTTPPVLDSDGSFALVSKLTVDKSRWQQGNVFSCSVMHEALHNHYTQKSLSLSPGGGGGSGDIQMTQSPSSLSASVGDRVTITCRASESVEYYVTSLMQWYQQKPGKAPKLLIYAASNVDSGVPSRFSGSGSGTDFTLTISSLQPEDIATYYCQQSRKVPFTFGGGTKVEIKGGGGSGGGGSGGGGSGGGGSQVQLQESGPGLVKPSETLSLTCAVSGFSLTSYGVHWIRQPPGKGLEWLGVIWPGGGTNFNSALMSRLTISEDTSKNQVSLKLSSVTAADTAVYYCARDRAYGNYLYAMDYWGQGTLVTVSS
heavy 2: QVQLVESGGGLVQPGGSLRLSCSVSGIDLSSNPMIWVRQAPGKGLQYIGIIDTDGSTYYADWAKGRFTISKDSTTVYLQINSPRAEDTAVYYCARRLHGSSNGYYDDLWGQGTLVTVSSGGGGSGGGGSGGGGSGGGGSDGQMTQSPSSVSASVGDRVTITCQASQSIYSYLSWYQQKPGQRPKLLIYKASTLASGVPSRFSGSGSGTDFTLTISSVQPEDFATYYCQQGYTVTNVDKNTFGGGTKVEIKAAEPKSSDKTHTCPPCPAPEAAGGPSVFLFPPKPKDTLMISRTPEVTCVVVSVSHEDPEVKFNWYVDGVEVHNAKTKPREEQYNSTYRVVSVLTVLHQDWLNGKEYKCKVSNKALPAPIEKTISKAKGQPREPQVYVLPPSRDELTKNQVSLLCLVKGFYPSDIAVEWESNGQPENNYLTWPPVLDSDGSFFLYSKLTVDKSRWQQGNVFSCSVMHEALHNHYTQKSLSLSPG
light: NFMLTQPHSVSESPGKTVTISCKRNTGNIGSNYVNWYQQHEGSSPTTIIYRNDKRPDGVSDRFSGSIDRSSKSASLTISNLKTEDEADYFCQSYSSGFIFGGGTKLTVLGQPKAAPSVTLFPPSSEELQANKATLVCLISDFYPGAVTVAWKADSSPVKAGVETTTPSKQSNNKYAASSYLSLTPEQWKSHRSYSCQVTHEGSTVEKTVAPTECS
notes: Het Fc, FcKO; also called CD3xCD28xCldn18.2 trispecific
In the assay with Human CLDN18.2, B2 came in with a Bmax of 6600 MFI and an EC50 of 30.1 nM. Further, in assay [4], the Kd was 92.5 nM, the koff is 0.0143 s⁻¹ and the kon was 157000 M⁻¹ s⁻¹. Further, in assay [5], the Kd is 288 nM, the koff worked out at 0.0107 s⁻¹ and the kon amounted to 40400 M⁻¹ s⁻¹.

B3: v37640 (trispecific antibody, human IgG1, kappa, L234A L235A)
heavy 1: QVQLQESGPGLVKPSETLSLTCAVSGFSLTSYGVHWIRQPPGKGLEWLGVIWPGGGTNFNSALMSRLTISEDTSKNQVSLKLSSVTAADTAVYYCARDRAYGNYLYAMDYWGQGTLVTVSSASTKGPSVFPLAPSSKSTSGGTAALGCLVKDYFPEPVTVSWNSGALTSGVHTFPAVLQSSGLYSLSSVVTVPSSSLGTQTYICNVNHKPSNTKVDKKVEPKSCDKTHTCPPCPAPEAAGGPSVFLFPPKPKDTLMISRTPEVTCVVVSVSHEDPEVKFNWYVDGVEVHNAKTKPREEQYNSTYRVVSVLTVLHQDWLNGKEYKCKVSNKALPAPIEKTISKAKGQPREPQVYVYPPSRDELTKNQVSLTCLVKGFYPSDIAVEWESNGQPENNYKTTPPVLDSDGSFALVSKLTVDKSRWQQGNVFSCSVMHEALHNHYTQKSLSLSPGGGGGSGNFMLTQPHSVSESPGKTVTISCKRNTGNIGSNYVNWYQQHEGSSPTTIIYRNDKRPDGVSDRFSGSIDRSSKSASLTISNLKTEDEADYFCQSYSSGFIFGGGTKLTVLGGGGSGGGGSGGGGSGGGGSEVQLVESGGGLVQPGGSLRLSCAASGVTFNYYGMSWIRQAPGKGLEWVASITSSGGRIYYPDSVKGRFTISRENTQKTLYLQMNSLRAEDTAVYYCTLDGRDGWVAYWGQGTLVTVSS
heavy 2: QVQLVESGGGLVQPGGSLRLSCSVSGIDLSSNPMIWVRQAPGKGLQYIGIIDTDGSTYYADWAKGRFTISKDSTTVYLQINSPRAEDTAVYYCARRLHGSSNGYYDDLWGQGTLVTVSSGGGGSGGGGSGGGGSGGGGSDGQMTQSPSSVSASVGDRVTITCQASQSIYSYLSWYQQKPGQRPKLLIYKASTLASGVPSRFSGSGSGTDFTLTISSVQPEDFATYYCQQGYTVTNVDKNTFGGGTKVEIKAAEPKSSDKTHTCPPCPAPEAAGGPSVFLFPPKPKDTLMISRTPEVTCVVVSVSHEDPEVKFNWYVDGVEVHNAKTKPREEQYNSTYRVVSVLTVLHQDWLNGKEYKCKVSNKALPAPIEKTISKAKGQPREPQVYVLPPSRDELTKNQVSLLCLVKGFYPSDIAVEWESNGQPENNYLTWPPVLDSDGSFFLYSKLTVDKSRWQQGNVFSCSVMHEALHNHYTQKSLSLSPG
light: DIQMTQSPSSLSASVGDRVTITCRASESVEYYVTSLMQWYQQKPGKAPKLLIYAASNVDSGVPSRFSGSGSGTDFTLTISSLQPEDIATYYCQQSRKVPFTFGGGTKVEIKRTVAAPSVFIFPPSDEQLKSGTASVVCLLNNFYPREAKVQWKVDNALQSGNSQESVTEQDSKDSTYSLSSTLTLSKADYEKHKVYACEVTHQGLSSPVTKSFNRGEC
notes: Het Fc, FcKO; also called Cldn18.2xCD28xCD3 trispecific
For the molecule B3, in the assay with Human CLDN18.2, the Bmax amounted to 9770 MFI and the EC50 was 26.4 nM. Also, in assay [4], the Kd was 296 nM, the koff turned out to be 0.0155 s⁻¹ and the kon worked out at 52200 M⁻¹ s⁻¹. Moreover, in assay [5], the Kd amounted to 27.3 nM, the koff came out at 0.00212 s⁻¹ and the kon came to 77800 M⁻¹ s⁻¹.

B4: v37633 (trispecific antibody, human IgG1, lambda, L234A L235A)
heavy 1: not shown
heavy 2: QVQLVESGGGLVQPGGSLRLSCSVSGIDLSSNPMIWVRQAPGKGLQYIGIIDTDGSTYYADWAKGRFTISKDSTTVYLQINSPRAEDTAVYYCARRLHGSSNGYYDDLWGQGTLVTVSSGGGGSGGGGSGGGGSGGGGSDGQMTQSPSSVSASVGDRVTITCQASQSIYSYLSWYQQKPGQRPKLLIYKASTLASGVPSRFSGSGSGTDFTLTISSVQPEDFATYYCQQGYTVTNVDKNTFGGGTKVEIKAAEPKSSDKTHTCPPCPAPEAAGGPSVFLFPPKPKDTLMISRTPEVTCVVVSVSHEDPEVKFNWYVDGVEVHNAKTKPREEQYNSTYRVVSVLTVLHQDWLNGKEYKCKVSNKALPAPIEKTISKAKGQPREPQVYVLPPSRDELTKNQVSLLCLVKGFYPSDIAVEWESNGQPENNYLTWPPVLDSDGSFFLYSKLTVDKSRWQQGNVFSCSVMHEALHNHYTQKSLSLSPG
light: NFMLTQPHSVSESPGKTVTISCKRNTGNIGSNYVNWYQQHEGSSPTTIIYRNDKRPDGVSDRFSGSIDRSSKSASLTISNLKTEDEADYFCQSYSSGFIFGGGTKLTVLGQPKAAPSVTLFPPSSEELQANKATLVCLISDFYPGAVTVAWKADSSPVKAGVETTTPSKQSNNKYAASSYLSLTPEQWKSHRSYSCQVTHEGSTVEKTVAPTECS
notes: Het Fc, FcKO; also called CD28xCD3xCldn18.2 trispecific
In the assay with Human CLDN18.2, B4 displayed a Bmax of 8570 MFI and an EC50 of 40.8 nM. For the same molecule, in assay [4], the Kd amounted to 135 nM, the koff was determined as 0.0176 s⁻¹ and the kon was determined as 130000 M⁻¹ s⁻¹. Besides, in assay [5], the Kd was 55.1 nM, the koff worked out at 0.0062 s⁻¹ and the kon was found to be 113000 M⁻¹ s⁻¹.
